Experimental findings from patent US20230374161A1 (Stanford University, published 2023) are described below.

As a reminder, the Kd is the equilibrium constant for the complex coming apart. A higher Kd goes with weaker binding.

This assay deals with human NKG2A (human, UniProt P26715 94-233, limits assumed). As to the kind of experiment: not stated; drawn table 'Binding affinity of anti-NKG2A scFv to human NKG2A', column 'Binding affinity, KD (M)'.
Sequence of human NKG2A (P26715 94-233 limits assumed): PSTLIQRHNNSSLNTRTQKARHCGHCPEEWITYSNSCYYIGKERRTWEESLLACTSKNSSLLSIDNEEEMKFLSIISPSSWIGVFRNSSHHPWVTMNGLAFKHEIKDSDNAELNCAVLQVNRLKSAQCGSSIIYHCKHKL

B1: murine anti-NKG2A scFv (scFv)
scFv: QVQLQQPGAELVRPGASVKLSCKASGYTFTSYWMNWVKQRPEQGLQWIGRIDPYDSETHYSQKFKDKAILTVDKSSSTAYMRLSSLTSEDSAVYYCARGGYDFDVGTLYWFFDVWGAGTTVTVSSGGSTRSSSSGGGGSGGGGDIQMTQSPASLSASVGETVTITCRASENIYSYLAWYQQKQGKSPQFLVYNAKTLAEGVPSRFSGSGSGTQFSLKINSLQPEDFGSYYCQHHYGTPRTFGGGTKLEIKAAAHHHHHHHH
notes: Derived from the VH and VL of murine antibody Z270 (U.S. Pat. No. 9,683,041), expressed in Hi5 cells, purified on Ni-NTA; also called αNKG2A-scFv
B1 yielded a Kd of 0.0665 nM. This counts as picomolar.
